# From US20240270839A1
# Substitutions are numbered along the chain they refer to.
# B1: 99H8 (antibody, V domains shown)
# VH: QVQLQQSGPELVKPGASVKLSCKASGYSFTNFDINWVKQRPGQGLQWIGRLYPRDGTTTYNEKFKGKASLTVDTSSTTSYMDLHSLTSEDSAVYFCVRGNYGNSFAYWGQGTLVTVSA
# VL: DIVMTQSPSSLTVTAREKVIMNCKSSQSLFNSGNQKNYLTWYQQKPGQSPKLLIYWASTRQSGVPDRFTGSGSGTDFTLTISTVQAEDLAVYFCQNGFSFPYTFGGGTKLEMN
# B2: 35B4 (antibody, V domains shown)
# VH: EAKLVESGGDFMQPGGSLKLSCAASGFTLSSYALSWVRQTPEKRLEWVAYISNLGGSTFYPDTVKGRFTISRDNARNTLFLQMSSLQSEDTAIYYCATHLYNYDAFASWGQGTLVTVSA
# VL: QIVLSQSPAILSASPGEKVTMTCRASSSVNYIHWYQQKPGSSPKAWIYATSNLASGVPTRFSGSGSGTSYSLTIDRVEAEDAATYYCQQWNSNPLTFGAGTKLELK
# B3: 33G12 (antibody, V domains shown)
# VH: EVKLVESGGGLVQPGGSLKLSCAASGFTFSRYAMSWVRQTPEKRLEWVAYISIGGTTYYPDTIKGRFTISRDNAKNTLYLQMSSLKSEDTAMYYCTRHYYGHDVMDYWGQGTSVTVSS
# VL: B2 VL with A9T, S26T, N30S, I32M, Y35F, A45P, T59A, D75S, N91S, S92R
# B4: 97A9 (antibody, V domains shown)
# VH: QVQLQQSGPELVKPGASMKLSCKASGYSFTRNDINWVKQRPGQGLEWIGLSYPRDGTTQYNGKFKGKATLTVDTSSSTAYMELRSLTSEDSAVYFCARGYYGNSFAYWGQGTLVTVSA
# VL: DIVMTQSPSSLTVTAGEKVTMSCKSSQSLLNSGNQKNYLTWYQQKPGQPPKLLIYWASTRESGVPDRFTGSGSGTYFTLTISSVQAEDLAVYFCQNDYYFPYTFGGGTKLEIK
# B5: 22E12 (antibody, V domains shown)
# VH: QVQLQQPGTELVKTGTSVKLSCKASGYTFTNWVHWVIQRPGQGLEWIGEINPTNGRSNYNEKFKKKATLTLDRSSTTAYMQLSSLTSEDSAVYFCAGIYYGNSFAHWGQGTLVTVSA
# VL: B4 VL with M21L, A57S, Y76D, F93H, D97N, F100Y, Y102L, G106A, I112L
# B6: ch97A9 (antibody, V domains shown)
# VH: B4 VH
# VL: B4 VL
# B7: ch99H8 (antibody, V domains shown)
# VH: B1 VH
# VL: B1 VL
# B8: hu35B4.H1L2 (antibody, V domains shown)
# VH: EVQLLESGGGLVQPGGSLRLSCAASGFTLSSYALSWVRQAPGKGLEWVSYISNLGGSTFYPDTVKGRFTISRDNSKNTLYLQMNSLRAEDTAVYYCAKHLYNYDAFASWGQGTLVTVSS
# VL: DIQLTQSPSFLSASVGDRVTITCRASSSVNYIHWYQQKPGKAPKALIYATSNLASGVPSRFSGSGSGTEYTLTISSLQPEDFATYYCQQWNSNPLTFGQGTKLEIK
# B9: hu22E12.H1L2 (antibody, V domains shown)
# VH: QVQLVQSGAEVKKPGASVKVSCKASGYTFTNWVHWVRQAPGQGLEWMGEINPTNARSNYNEKFKKRVTMTRDTSTSTVYMELSSLRSEDTAVYYCARIYYGNSFAHWGQGTLVTVSS
# VL: DIVMTQSPDSLAVSLGERATINCKSSQSLLNAGNQKNYLTWYQQKPGQPPKLLIYWSSTRESGVPDRFSGSGSGTDFTLTISSLQAEDVAVYHCQNNYYYPLTFGGGTKLEIK
# Target: mouse CLDN18.2 (mCLDN18.2), expressed on HEK293 cells (mouse) (UniProt P56857)
# Experiment: FACS, HEK293/mCLDN18.2 cells
row,EC50,Binder
1,3.5 nM,B1
2,1.9 nM,B2
3,1.7 nM,B3
4,1.4 nM,B4
5,0.9 nM,B5

# Target: human CLDN18.2 as used in the Octet assay (human)
# Experiment: Octet (BLI); format not described
row,Kd,Binder
1,2 nM,B1
2,3.3 nM,B2
3,6.2 nM,B3
4,2.2 nM,B4
5,< 0.001 nM,B5

# Target: recombinant 6xHis tagged human CLDN18.2 (human)
# Experiment: SPR (Biacore); same values as Table 30, where the antibody is ch97A9
row,Kd,Binder
1,1.15 nM,B6

# Target: recombinant 6xHis tagged human CLDN18.2 (human)
# Experiment: SPR (Biacore); same values as Table 30, where the antibody is ch99H8
row,Kd,Binder
1,1.75 nM,B7

# Target: recombinant 6xHis tagged human CLDN18.2 (human)
# Experiment: SPR (Biacore); same values as Table 30, where the antibody is hu35B4.H1L2
row,Kd,Binder
1,1.57 nM,B8

# Target: recombinant 6xHis tagged human CLDN18.2 (human)
# Experiment: SPR (Biacore); same values as Table 30, where the antibody is hu22E12.H1L2
row,Kd,Binder
1,0.26 nM,B9

# Target: recombinant 6xHis tagged human CLDN18.2 (human)
# Experiment: SPR (Biacore T200), His tagged CLDN18.2 amine-coupled on CM5, antibody as analyte, 1:1 fit
Kd,koff,kon,Binder
1.75 nM,0.000355 s⁻¹,203000 M⁻¹ s⁻¹,B7
0.26 nM,0.000202 s⁻¹,778000 M⁻¹ s⁻¹,B9
1.57 nM,0.00035 s⁻¹,222000 M⁻¹ s⁻¹,B8
1.15 nM,0.000489 s⁻¹,425000 M⁻¹ s⁻¹,B6

# Target: biotin labeled hCLDN18.2 (human)
# Experiment: competitive ELISA: excess antibody plus biotin labeled hCLDN18.2 on coated IMAB362; competitor IMAB362
row,Compete with IMAB362 (%),Binder
1,81%,B2
2,87%,B3
3,92%,B4
4,49%,B5
